Data: patent publication US20250339569A1 (3B PHARMACEUTICALS, published 2025)
Blank lines part the entries; values can stand above or below the binder they belong to. Starred links: 1 amine or outer side, 2 acyl side, 3 side chain; linkers in the order of their positions; H or OH if unused. Positions of bridges follow the written chain, without caps; N, C: chain ends. Non-standard residues stand in square brackets, D forms with d. Groups on a side chain read outwards from the residue. Primed or numbered codes have the meaning given here. No end group written: not given here. *: point of attachment. Af3(2Py6SaNH) = 3-amino-L-phenylalanine, ring amine acylated by 6-(sulfamoylamino)pyridine-2-carboxylic acid, NS(=O)(=O)Nc1cccc(C(=O)Nc2cccc(C[C@H](N[*:1])C(=O)[*:2])c2)n1; Af3(TzPr) = 3-amino-L-phenylalanine acylated on the ring amine with 3-(1H-1,2,4-triazol-3-yl)propanoic acid, O=C(CCc1nc[nH]n1)Nc1cccc(C[C@H](N[*:1])C(=O)[*:2])c1; Af3(Ac-Glu) = 3-aminophenylalanine acylated on the ring amine with N-acetyl-glutamic acid, CC(=O)N[C@@H](CCC(=O)[*:3])C(=O)Nc1cccc(C[C@H](N[*:1])C(=O)[*:2])c1; Af3(HO-Succinyl) = 3-aminophenylalanine with succinyl (free acid) on the ring amine, O=C(CCC(=O)[*:3])Nc1cccc(C[C@H](N[*:1])C(=O)[*:2])c1; Eem = S-benzyl-cysteine-sulfone, O=C([C@H](CS(=O)(=O)Cc1ccccc1)N[*:1])[*:2]; APAc″ = 2-(4-(amino)piperidin-1-yl)acetic acid, NC1CCN(CC(=O)*)CC1; DOTA = O=C(O)CN1CCN(CC(=O)O)CCN(CC(=O)*)CCN(CC(=O)O)CC1; PPAc = 4-carboxymethyl piperazine linker; mXylylene = c1cc(C[*:1])cc(C[*:2])c1; tBuAla = CC(C)(C)C[C@H](N)C(=O)O; NMeD = CN[C@@H](CC(=O)O)C(=O)O; N4BzlCl = not defined here; hSer = N[C@@H](CCO)C(=O)O; AGLU′ = not defined here; dNMeA = CN[C@H](C)C(=O)O; APAc = not defined here; Apr = not defined here; Dap = NC[C@H](N)C(=O)O; AEEA = NCCOCCOCC(=O)O; Nlys = NCCCCNCC(=O)O; Ttds″ = Ttds spacer; Bn = c1ccc(C*)cc1

Assays:
[1] = target: T1, Fc-fusion protein of human carbonic anhydrase IX (human, UniProt Q16790 38-414); test: SPR, captured hCAIX-Fc; pKD category A: >8.0
Experimental: (§1) Stock solutions of test compounds were prepared by dissolving each compound in DMSO. DMSO stock solution were diluted 1:1000 in Running Buffer without DMSO. […] SPR binding analyses were performed in Single Cycle Kinetic (SCK) mode at 25° C.
(§2) For each test compound, SPR raw data in the form of resonance units (RU) were plotted as sensorgrams using the Biacore™ T200 control software. The signal from the blank sensorgram was subtracted from that of the test compound sensorgram (blank corrected). The blank corrected sensorgram was corrected for baseline drift by subtracting the sensorgram of a SCK run without the test compound (running buffer only). […] Raw data and fit results were imported as text files in IDBS. The pKD value (negative decadic logarithm of dissociation constant) was calculated in the IDBS excel template.

[2] = target: T1, Fc-fusion protein of human carbonic …; test: SPR, captured hCAIX-Fc; t1/2 category A: >15.0 min
Experimental: as §1, §2

[3] = target: T1, Fc-fusion protein of human carbonic …; test: SPR, captured hCAIX-Fc; t1/2 category B: 5.1-15.0 min
Experimental: as §1, §2

- pKD [1]: > 8 pkd
- t1/2 (half-life of the complex, SPR) [2]: > 15 min
Binder: {DOTA-APAc″}-VECE[dP]DWLTW[Dap]C-NH2 (lactam 2-11; linker 3-12 via mXylylene) [3BP-4175]

- pKD [1]: > 8 pkd
- t1/2 (half-life of the complex, SPR) [2]: > 15 min
Binder: {DOTA-APAc″}-VYCE[dP]D[Af3(HO-Succinyl)]LTWSC-NH2 (linker 3-12 via mXylylene) [3BP-4237]

- pKD [1]: > 8 pkd
- t1/2 (half-life of the complex, SPR) [2]: > 15 min
Binder: {DOTA-APAc″}-VYCE[dP]D[Af3(TzPr)]LTWSC-NH2 (linker 3-12 via mXylylene) [3BP-4324]

- pKD [1]: > 8 pkd
- t1/2 (half-life of the complex, SPR) [2]: > 15 min
Binder: {DOTA-APAc}-VYCE[dP]C(Bn)WLTWSC-NH2 (linker 3-12 via mXylylene; not fully specified; reading uncertain) [3BP-4128]

- pKD [1]: > 8 pkd
- t1/2 (half-life of the complex, SPR) [3]: 5.1 to 15 min
Binder: {DOTA-APAc}-VE(AGLU′)CE[dP]DWLTWSC-NH2 (linker 3-12 via mXylylene; reading uncertain) [3BP-4112]

- pKD [1]: > 8 pkd
- t1/2 (half-life of the complex, SPR) [3]: 5.1 to 15 min
Binder: {DOTA-APAc}-VSCE[dP]DWLTWSC-NH2 (linker 3-12 via mXylylene; reading uncertain) [3BP-4105]

- pKD [1]: > 8 pkd
- t1/2 (half-life of the complex, SPR) [2]: > 15 min
Binder: {DOTA-APAc″}-VYCE[dP]E(N4BzlCl)WLTWSC-NH2 (linker 3-12 via mXylylene; reading uncertain) [3BP-4334]

- pKD [1]: > 8 pkd
- t1/2 (half-life of the complex, SPR) [2]: > 15 min
Binder: {DOTA-APAc}-VYCE[dP]DWLE(AGLU′)WSC-NH2 (linker 3-12 via mXylylene; reading uncertain) [3BP-4121]

- pKD [1]: > 8 pkd
- t1/2 (half-life of the complex, SPR) [2]: > 15 min
Binder: {DOTA-APAc}-VYCE[dP]DWLTWEC-NH2 (linker 3-12 via mXylylene; not fully specified (residue 11); reading uncertain) [3BP-4122]

- pKD [1]: > 8 pkd
- t1/2 (half-life of the complex, SPR) [3]: 5.1 to 15 min
Binder: {DOTA-APAc}-VYCE[dE](AGLU′)DWLTWSC-NH2 (linker 3-12 via mXylylene; reading uncertain) [3BP-4119]

- pKD [1]: > 8 pkd
- t1/2 (half-life of the complex, SPR) [2]: > 15 min
Binder: {DOTA-APAc″}-VYCE[dP]D[Af3(Ac-Glu)]LTWSC-NH2 (linker 3-12 via mXylylene) [3BP-4361]

- pKD [1]: > 8 pkd
- t1/2 (half-life of the complex, SPR) [2]: > 15 min
Binder: {DOTA-APAc″}-VYCE[dP]DW[tBuAla]TWSC-NH2 (linker 3-12 via mXylylene) [3BP-4142]

- t1/2 (half-life of the complex, SPR) [3]: 5.1 to 15 min
Binder: {DOTA-PPAc}-QCE[dP]D[Af3(2Py6SaNH)]LTWSC-NH2 (linker 2-11 via mXylylene) [3BP-4514]

- pKD [1]: > 8 pkd
- t1/2 (half-life of the complex, SPR) [2]: > 15 min
B5: 3BP-4337 (peptide)
peptide: VDCE[dP]DWLTW[Dap]C-NH2
modifications: lactam 2-11; linker 3-12 via mXylylene; not fully specified (N-terminus); also: indium complexed by DOTA

- pKD [1]: > 8 pkd
- t1/2 (half-life of the complex, SPR) [2]: > 15 min
Binder: {DOTA-APAc}-VYCE[dP][Eem]WLTWSC-NH2 (linker 3-12 via mXylylene; not fully specified; reading uncertain) [3BP-4123]

- pKD [1]: > 8 pkd
- t1/2 (half-life of the complex, SPR) [2]: > 15 min
Binder: {DOTA-APAc}-VYCE[dP][NMeD]WLTWSC-NH2 (linker 3-12 via mXylylene; reading uncertain) [3BP-4107]

- pKD [1]: > 8 pkd
- t1/2 (half-life of the complex, SPR) [2]: > 15 min
B6: 3BP-4264 (peptide)
peptide: {DOTA}-VDCE[dP]DWLTW[Dap]C-NH2
modifications: lactam 2-11; linker 3-12 via mXylylene
SMILES: CC(C)C[C@@H]1NC(=O)[C@H](Cc2c[nH]c3ccccc23)NC(=O)[C@H](CC(=O)O)NC(=O)[C@H]2CCCN2C(=O)[C@H](CCC(=O)O)NC(=O)[C@@H]2CSCc3cccc(c3)CSC[C@@H](C(N)=O)NC(=O)[C@H](CNC(=O)C[C@H](NC(=O)[C@@H](NC(=O)CN3CCN(CC(=O)O)CCN(CC(=O)O)CCN(CC(=O)O)CC3)C(C)C)C(=O)N2)NC(=O)[C@H](Cc2c[nH]c3ccccc23)NC(=O)[C@H]([C@@H](C)O)NC1=O

More lines, now with the values behind:

Binder: {DOTA-Ttds″}-VYCE[dA]DWLTWAC-NH2 (linker 3-12 via mXylylene; not fully specified) [3BP-3279]
- pKD [1]: > 8 pkd
- t1/2 (half-life of the complex, SPR) [3]: 5.1 to 15 min

Binder: Ac-SYCE[dP]DWLTWE([Apr-DOTA])C-NH2 (linker 3-12 via mXylylene; reading uncertain) [3BP-3873]
- pKD [1]: > 8 pkd
- t1/2 (half-life of the complex, SPR) [3]: 5.1 to 15 min

Binder: Ac-VRCE[dP]DWLTWE([Apr-AEEA-DOTA])C-NH2 (linker 3-12 via 3MeBn; reading uncertain) [3BP-3734]
- pKD [1]: > 8 pkd
- t1/2 (half-life of the complex, SPR) [3]: 5.1 to 15 min

Binder: {DOTA-APAc}-VYCE[dP]DWLTWRC-NH2 (linker 3-12 via mXylylene; reading uncertain) [3BP-3599]
- pKD [1]: > 8 pkd
- t1/2 (half-life of the complex, SPR) [3]: 5.1 to 15 min

B1: 3BP-3280 (peptide)
peptide: Ac-VYCE[dA]DWLTWAC-NH2
modifications: linker 3-12 via mXylylene
SMILES: CC(=O)N[C@H](C(=O)N[C@@H](Cc1ccc(O)cc1)C(=O)N[C@H]1CSCc2cccc(c2)CSC[C@@H](C(N)=O)NC(=O)[C@H](C)NC(=O)[C@H](Cc2c[nH]c3ccccc23)NC(=O)[C@H]([C@@H](C)O)NC(=O)[C@H](CC(C)C)NC(=O)[C@H](Cc2c[nH]c3ccccc23)NC(=O)[C@H](CC(=O)O)NC(=O)[C@@H](C)NC(=O)[C@H](CCC(=O)O)NC1=O)C(C)C
- pKD [1]: > 8 pkd
- t1/2 (half-life of the complex, SPR) [3]: 5.1 to 15 min

B2: 3BP-3328 (peptide)
peptide: VYCEGDWLTWQC-NH2
modifications: linker 3-12 via mXylylene; not fully specified (N-terminus); also: indium complexed by DOTA
- pKD [1]: > 8 pkd
- t1/2 (half-life of the complex, SPR) [3]: 5.1 to 15 min

Binder: Ac-VFCE[dP]DWLTWE([Apr-DOTA])C-NH2 (linker 3-12 via mXylylene; reading uncertain) [3BP-3874]
- pKD [1]: > 8 pkd
- t1/2 (half-life of the complex, SPR) [3]: 5.1 to 15 min

Binder: Ac-SYCE[dP]DWLTWE([Apr-AEEA-DOTA])C-NH2 (linker 3-12 via 3MeBn; reading uncertain) [3BP-3732]
- pKD [1]: > 8 pkd
- t1/2 (half-life of the complex, SPR) [3]: 5.1 to 15 min

Binder: {DOTA-APAc}-VYCQ[dP]DWLTWSC-NH2 (linker 3-12 via mXylylene; reading uncertain) [3BP-4104]
- pKD [1]: > 8 pkd
- t1/2 (half-life of the complex, SPR) [3]: 5.1 to 15 min

B3: 3BP-3905 (peptide)
peptide: {DOTA-APAc}-VYCE[dP]DWLTWSC-NH2
modifications: linker 3-12 via mXylylene; reading uncertain; also: ['indium complexed by DOTA']
- pKD [1]: > 8 pkd
- t1/2 (half-life of the complex, SPR) [2]: > 15 min

B4: 3BP-3281 (peptide)
peptide: Ac-VYCE[dNMeA]DWLTWAC-NH2
modifications: linker 3-12 via mXylylene
SMILES: CC(=O)N[C@H](C(=O)N[C@@H](Cc1ccc(O)cc1)C(=O)N[C@H]1CSCc2cccc(c2)CSC[C@@H](C(N)=O)NC(=O)[C@H](C)NC(=O)[C@H](Cc2c[nH]c3ccccc23)NC(=O)[C@H]([C@@H](C)O)NC(=O)[C@H](CC(C)C)NC(=O)[C@H](Cc2c[nH]c3ccccc23)NC(=O)[C@H](CC(=O)O)NC(=O)[C@@H](C)N(C)C(=O)[C@H](CCC(=O)O)NC1=O)C(C)C
- pKD [1]: > 8 pkd
- t1/2 (half-life of the complex, SPR) [3]: 5.1 to 15 min

Binder: {DOTA-APAc}-VYCE[dP][hSer]WLTWSC-NH2 (linker 3-12 via mXylylene; reading uncertain) [3BP-4102]
- pKD [1]: > 8 pkd
- t1/2 (half-life of the complex, SPR) [2]: > 15 min

Binder: Ac-VYCE[Nlys](DOTA)DWLTWAC-NH2 (linker 3-12 via mXylylene) [3BP-3562]
- pKD [1]: > 8 pkd
- t1/2 (half-life of the complex, SPR) [2]: > 15 min
